Read-outs that look alike come from different tables or passages of the source.
T1: human Fzd5-Fc
T1 construct: also called FZD5 ECD; Fzd5 CRD-Fc fusion protein (R&D systems); not shown: exact vendor limits of the CRD construct
T1 chain: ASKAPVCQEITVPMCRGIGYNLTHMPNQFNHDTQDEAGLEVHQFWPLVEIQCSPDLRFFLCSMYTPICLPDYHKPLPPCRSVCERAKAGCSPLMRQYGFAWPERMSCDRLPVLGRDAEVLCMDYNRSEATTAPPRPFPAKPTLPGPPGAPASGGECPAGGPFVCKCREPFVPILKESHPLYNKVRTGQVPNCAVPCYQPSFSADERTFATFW

T2: human Fzd8-Fc
T2 construct: also called FZD8 ECD; Fzd8 CRD-Fc fusion protein (R&D systems); not shown: exact vendor limits of the CRD construct
T2 chain: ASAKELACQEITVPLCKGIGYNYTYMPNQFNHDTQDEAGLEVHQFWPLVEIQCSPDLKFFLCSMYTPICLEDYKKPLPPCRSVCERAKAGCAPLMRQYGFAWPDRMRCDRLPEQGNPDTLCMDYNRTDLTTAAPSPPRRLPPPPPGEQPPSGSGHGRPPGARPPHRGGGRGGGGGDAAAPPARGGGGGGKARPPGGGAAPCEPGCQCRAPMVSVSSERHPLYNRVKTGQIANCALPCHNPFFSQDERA


Tests used:
[1] = biological target: recombinant Frizzled receptor 7 (FZD7) cysteine-rich domain (CRD) fused to the Fc region of human IgG (human, UniProt O75084 33-185); assay: SPR
human Fzd1-Fc = biological target: T3, human Fzd1-Fc; assay: SPR
T3 construct: also called FZD1 ECD; Fzd1 CRD-Fc fusion protein (R&D systems); not shown: exact vendor limits of the CRD construct
T3 sequence (chain, as listed by the source limits assumed): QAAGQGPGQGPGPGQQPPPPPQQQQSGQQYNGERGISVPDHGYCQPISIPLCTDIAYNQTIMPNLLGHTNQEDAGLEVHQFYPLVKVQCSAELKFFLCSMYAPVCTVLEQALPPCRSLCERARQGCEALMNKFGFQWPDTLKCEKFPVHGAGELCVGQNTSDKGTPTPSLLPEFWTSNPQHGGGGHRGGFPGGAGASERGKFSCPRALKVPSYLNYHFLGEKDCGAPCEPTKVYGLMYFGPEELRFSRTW

mouse Fzd2-Fc = biological target: T4, mouse Fzd2-Fc; assay: SPR
T4 construct: also called mFZD2 ECD; Fzd2 CRD-Fc fusion protein (R&D systems); not shown: exact vendor limits of the CRD construct
T4 sequence (chain, as listed by the source limits assumed): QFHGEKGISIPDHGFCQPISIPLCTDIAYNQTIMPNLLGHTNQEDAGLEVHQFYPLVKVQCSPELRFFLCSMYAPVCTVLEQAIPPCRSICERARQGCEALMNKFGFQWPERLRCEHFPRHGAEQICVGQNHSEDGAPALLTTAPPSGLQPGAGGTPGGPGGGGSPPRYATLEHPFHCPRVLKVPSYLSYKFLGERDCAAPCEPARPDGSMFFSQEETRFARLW

[2] = biological target: T5, recombinant Frizzled receptor 7 (FZD7) cysteine-rich domain (CRD) fused to the Fc region of human IgG (human, UniProt O75084 33-185); assay: SPR; remark: listed apart in the source
[3] = biological target: T5, recombinant Frizzled receptor 7 (FZD7) …; assay: SPR; remark: listed apart in the source
[4] = biological target: T6, FZD7 receptor expressed on cells (full-length) (UniProt O75084 33-574, limits assumed); assay: cell-based or functional assay
[5] = biological target: T5, recombinant Frizzled receptor 7 (FZD7) …; assay: ELISA, 1ug/ml (20nM) Fab [cont'd]
Procedure, shortened: (§1)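 Plates coated with 2 ug/ml FZD7-Fc or Fc protein were probed with bacterially expressed purified Fabs for 1 h at room temperature in 0.5% BSA/0.05% Tween20/PBS. Bound Fab detected with anti-FLAG-HRP for 45 min, developed with TMB and acid stop, and read as absorbance at 450 nm; n.t. = not tested.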

[6] = biological target: T5, recombinant Frizzled receptor 7 (FZD7) …; assay: ELISA, 10ug/ml (200nM) Fab [cont'd]
Procedure, shortened: as §1

[7] = biological target: T5, recombinant Frizzled receptor 7 (FZD7) …; assay: competitive ELISA, detected phage-Fab A1
[8] = biological target: T5, recombinant Frizzled receptor 7 (FZD7) …; assay: competitive ELISA, detected phage-Fab E4
[9] = biological target: T5, recombinant Frizzled receptor 7 (FZD7) …; assay: competitive ELISA, detected phage-Fab E8
[10] = biological target: T5, recombinant Frizzled receptor 7 (FZD7) …; assay: competitive ELISA, detected phage-Fab G2
[11] = biological target: T5, recombinant Frizzled receptor 7 (FZD7) …; assay: competitive ELISA, detected phage-Fab G6
[12] = biological target: T5, recombinant Frizzled receptor 7 (FZD7) …; assay: competitive ELISA, detected phage-Fab H1
[13] = biological target: T5, recombinant Frizzled receptor 7 (FZD7) …; assay: competitive ELISA, detected phage-Fab H3
[14] = biological target: T5, recombinant Frizzled receptor 7 (FZD7) …; assay: competitive ELISA, detected phage-Fab D10
[15] = biological target: T5, recombinant Frizzled receptor 7 (FZD7) …; assay: competitive ELISA, detected phage-Fab H10
[16] = biological target: T6, FZD7 receptor expressed on cells …; assay: flow cytometry, 200 nM Fab, MDA MB 231 [cont'd]
Procedure, shortened: (§2)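 EDTA-harvested MDA MB 231 cells, either FZD7-overexpressing or with endogenous receptor, were blocked in 2% FBS/PBS and stained with Fab for 30 min on ice. Detection used anti-F(ab′)₂-APC (1:1000, 15 min on ice), then 1% paraformaldehyde fixation and flow cytometry. Values are percent of cells in positive gates.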

[17] = biological target: T6, FZD7 receptor expressed on cells …; assay: flow cytometry, 200 nM Fab, FZD7 over-expression line (MDA MB 231) [cont'd]
Procedure, shortened: as §2

human Fzd5-Fc = biological target: T1, human Fzd5-Fc; assay: SPR
human Fzd8-Fc = biological target: T2, human Fzd8-Fc; assay: SPR
[18] = biological target: T6, FZD7 receptor expressed on cells …; assay: cell-based or functional assay; remark: listed apart in the source

Row | Kd (human Fzd1-Fc) [nM] | Kd (mouse Fzd2-Fc) [nM] | Kd [2] [nM] | Kd [3] [nM] | koff [3] [s⁻¹] | kon [3] [M⁻¹ s⁻¹] | decrease in Wnt 3a-induced transcriptional activity (TOP-FLASH luciferase reporter in MDA MB 231 cells, 400 nM Fab) [4] [%] | OD 450 [5] | OD 450 [6] | % of Fab phage in presence of 750 nM Fab [7] [%] | % of Fab phage in presence of 750 nM Fab [8] [%] | % of Fab phage in presence of 750 nM Fab [9] [%] | % of Fab phage in presence of 750 nM Fab [10] [%] | % of Fab phage in presence of 750 nM Fab [11] [%] | % of Fab phage in presence of 750 nM Fab [12] [%] | % of Fab phage in presence of 750 nM Fab [13] [%] | % of Fab phage in presence of 750 nM Fab [14] [%] | % of Fab phage in presence of 750 nM Fab [15] [%] | % population within the positive gate [16] [%] | % population within the positive gate [17] [%] | Binder | also measured
1 | – | – | – | – | – | – | – | – | – | – | – | – | – | – | – | – | – | – | – | – | IgG G6 (antibody, V domains shown, Fab converted into full-length IgG1, made in 293F cells) VL: DIQMTQSPSSLSASVGDRVTITCRASQSVSSAVAWYQQKPGKAPKLLIYSASSLYSGVPSRFSGSRSGTDFTLTISSLQPEDFATYYCQQYYSLFTFGQGTKVEIK VH: EVQLVESGGGLVQPGGSLRLSCAASGFNIYYYSMHWVRQAPGKGLEWVAYISPSYGYTYYADSVKGRFTISADTSKNTAYLQMNSLRAEDTAVYYCARGYFYSWGGMDYWGQGTLVTVSS | Kd [1]: 0.3 nM
2 | 0.64 | 0.57 | 0.54 | 0.537 | 0.000457 | 852000 | > 70 | 3.2 | 3.19 | 4.5 | 12 | 6.7 | 4.5 | 10.4 | 8.5 | 18.3 | 4.7 | 4.3 | 99 | 94.7 | Fab H1 (Fab) chain 1: EVQLVESGGGLVQPGGSLRLSCAASGFNISSSYIHWVRQAPGKGLEWVAYIYSSYGSTYYADSVKGRFTISADTSKNTAYLQMNSLRAEDTAVYYCARASWYALDYWGQGTLVTVSSASTKGPSVFPLAPSSKSTSGGTAALGCLVKDYFPEPVTVSWNSGALTSGVHTFPAVLQSSGLYSLSSVVTVPSSSLGTQTYICNVNHKPSNTKVDKKVEPKSC chain 2: DIQMTQSPSSLSASVGDRVTITCRASQSVSSAVAWYQQKPGKAPKLLIYSASSLYSGVPSRFSGSRSGTDFTLTISSLQPEDFATYYCQQYWYGVAPITFGQGTKVEIKRTVAAPSVFIFPPSDSQLKSGTASVVCLLNNFYPREAKVQWKVDNALQSGNSQESVTEQDSKDSTYSLSSTLTLSKADYEKHKVYACEVTHQGLSSPVTKSFNRGECGGS | –
3 | 0.33 | 0.65 | 0.42 | 0.422 | 0.000803 | 1.9e+06 | > 70 | 3.24 | 3.27 | 6.5 | 5.1 | 5.9 | 4.6 | 7.4 | 21.9 | 10.5 | 6.1 | 3.2 | 98.8 | 93.4 | Fab E4 (Fab) chain 1: EVQLVESGGGLVQPGGSLRLSCAASGFNLSYYSMHWVRQAPGKGLEWVASIYPSYGYTYYADSVKGRFTISADTSKNTAYLQMNSLRAEDTAVYYCARPSPGSYHGMDYWGQGTLVTVSSASTKGPSVFPLAPSSKSTSGGTAALGCLVKDYFPEPVTVSWNSGALTSGVHTFPAVLQSSGLYSLSSVVTVPSSSLGTQTYICNVNHKPSNTKVDKKVEPKSC chain 2: DIQMTQSPSSLSASVGDRVTITCRASQSVSSAVAWYQQKPGKAPKLLIYSASSLYSGVPSRFSGSRSGTDFTLTISSLQPEDFATYYCQQSSYSLITFGQGTKVEIKRTVAAPSVFIFPPSDSQLKSGTASVVCLLNNFYPREAKVQWKVDNALQSGNSQESVTEQDSKDSTYSLSSTLTLSKADYEKHKVYACEVTHQGLSSPVTKSFNRGECGGS | Kd (human Fzd5-Fc): 1.43 nM; Kd (human Fzd8-Fc): 0.88 nM
4 | – | – | – | – | – | – | – | – | – | – | – | – | – | – | – | – | – | – | – | – | IgG E8 (antibody, V domains shown) VH: EVQLVESGGGLVQPGGSLRLSCAASGFNIYSSYIHWVRQAPGKGLEWVAYIYSYSGYTYYADSVKGRFTISADTSKNTAYLQMNSLRAEDTAVYYCARWYHPYWYASAIDYWGQGTLVTVSS VL: DIQMTQSPSSLSASVGDRVTITCRASQSVSSAVAWYQQKPGKAPKLLIYSASSLYSGVPSRFSGSRSGTDFTLTISSLQPEDFATYYCQQVSGGGGLITFGQGTKVEIK | IC50, Wnt3a-induced Top Flash reporter (% ligand mediated) [18]: 106 nM

From patent US20160194394A1 (GOVERNING COUNCIL OF THE UNIVERSITY OF TORONTO, published 2016)
